Experimental data as given in US20140105905A1 (Amgen, published 2014).

Legend:
[1] = target: T1, IL-8 peptide ELRCQCIKTYSK (human); experiment: overlapping IL-8 peptides on a membrane; column "Recognized epitope"
T1 peptide: ELRCQCIKTYSK
Experimental: Briefly, overlapping IL-8 peptides, which were each two amino acids c-terminal to the previous peptide (as shown in FIG. 8) were prepared and attached to a membrane. Antibodies were then added and allowed to bind to the peptides.

[2] = target: T2, recombinant human Interleukin-8 (human, UniProt P10145 28-99); experiment: KinExA equilibrium, low mAb concentration experiments analyzed in single curves
T2 construct: also called rhIL-8; IL-8
T2 sequence (looked up): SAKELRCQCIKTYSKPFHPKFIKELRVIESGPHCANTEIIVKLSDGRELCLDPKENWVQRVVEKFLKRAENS
Experimental: (§1) Antigen/antibody complexes were incubated at RT for 36 h to 144 h to allow equilibrium to be reached. The mixture was drawn through the rhIL-8-coupled beads to accumulate unbound antibody. The captured anti-hIL-8 mAb is directly proportional to the remaining free binding sites and was detected using solutions containing Cy5-conjugated anti-human secondary antibody in sample buffer. The concentrations, volumes, and flow rates of the secondary antibody solutions were varied to optimize the signal to noise ratio in each experiment. The bound signals were converted into relative values as a proportion of control in the absence of rhIL-8. The equilibrium dissociation constant (Kd) was obtained from nonlinear regression analysis of the data using a one-site homogeneous binding model contained within the software [Blake et Al., Anal. Biochem. 272:123, 1999; Jones et al., Bioconjug Chem 13:408, 2002]. […]
A proportionate amount of free mAb present in the equilibrium mixture was measured in KinExA under optimized conditions. For example, for the mixtures containing the low concentration of mAb, 18-36 ml of the sample was flown through rhIL-8 coupled to NHS-activated Sepharose beads and detected using 1-2 ml of 2.0 μg/ml of Cy5-labeled goat anti-human IgG Fcγ fragment-specific secondary antibody. […]

[3] = target: T2, recombinant human Interleukin-8; experiment: not named in this sentence (summary of the filing's own affinity results)
[4] = target: T2, recombinant human Interleukin-8; experiment: KinExA equilibrium, optimized, n-curve analysis, mAb 0.68, 2.0 and 13.7 pM
Description: The equilibrium dissociation constant (Kd) was obtained from nonlinear regression analysis of the data using a one-site homogeneous binding model contained within the software [Blake et Al., Anal. Biochem. 272:123, 1999; Jones et al., Bioconjug Chem 13:408, 2002]. The software calculates the Kd and determines the 95% confidence interval by fitting the data points to a theoretical Kd curve. The 95% confidence interval is given as Kd low and Kd high.
A proportionate amount of free mAb present in the equilibrium mixture was measured in KinExA under optimized conditions. For example, for the mixtures containing the low concentration of mAb, 18-36 ml of the sample was flown through rhIL-8 coupled to NHS-activated Sepharose beads and detected using 1-2 ml of 2.0 μg/ml of Cy5-labeled goat anti-human IgG Fcγ fragment-specific secondary antibody. The Kd was calculated using KinExA software by using the “n-curve analysis” selection.

[5] = target: T2, recombinant human Interleukin-8; experiment: KinExA equilibrium in solution, 36 h, mAb 20 pM
Experimental: as §1, with “The experiments with KinExA were performed using an automated flow immunoassay system, KinExA 3000 [Ohmura et al., Anal. Chem. 73:3392, 2001] in which rhIL-8-coupled beads served as the solid phase. […] Antigen/antibody” for “Antigen/antibody”
A proportionate amount of free mAb present in the equilibrium mixture was measured by flowing 0.25 ml to 3 ml of the sample on rhIL-8 coupled to CNBr-activated Sepharose beads and detected using 1.0 ml of 1.7 μg/ml of Cy5-labeled goat anti-human IgG Fcγ fragment-specific secondary antibody. […]

[6] = target: T2, recombinant human Interleukin-8; experiment: calculated from KinExA kon and Kd
Description: (§2) For measuring the association rate constant using KinExA, the same rhIL-8-coupled beads were used as the probe and the “Kinetics, Direct” method was used. The “Kinetics, Direct” experiments by KinExA are identical to KinExA equilibrium assays with respect to bead column height, antibody capture, antibody concentration and antibody detection. Briefly, the mAb was mixed with an amount of antigen that bound approximately 80% of the mAb in the equilibrium experiments and the free antibody present in the sample was probed repeatedly, pre-equilibrium. […] The volumes and flow rates of the antigen-mAb mixtures and the Cy5-labeled secondary antibody were varied depending upon the mAb tested. Data was analyzed utilizing the KinExA analysis software that comes with the KinExA 3000 instrument. This software graphically represents the decrease in binding signals over time, and fits the collected data points to an exact solution of the kinetic differential equations for binding. From this curve, an optimal solution for the kₒₙ is determined. The koff is indirectly calculated from solutions for the kₒₙ and Kd.
(§3) The on-rate measurement by KinExA is not limited by the mAb concentration used in the experiment. […] The concentration of mAb used for on-rate experiments was the same as those used in equilibrium binding experiments. An amount of IL-8 that bound 80% of the mAb in equilibrium binding experiments was mixed with the mAb. The amount of free mAb left in the mixture was measured in KinExA by flowing 1 ml of the mixture repeatedly through rhIL-8 coupled to NHS-activated Sepharose beads and detected using 1 ml of 2.0 μg/ml of Cy5-labeled goat anti-human IgG Fcγ fragment-specific secondary antibody. The kₒₙ was measured using the KinExA software by the “Kinetic, Direct” method and the 95% confidence intervals are given as kₒₙ range. The koff for the mAb was calculated from the measured kₒₙ and Kd of the respective mAb.

[7] = target: T2, recombinant human Interleukin-8; experiment: KinExA "Kinetics, Direct" method
Description: as §2, §3

binding result [1]: binds | Kd [2]: 0.59 pM | Kd [3]: ~0.06 pM | Kd [4]: 0.613 pM | Kd [5]: 0.057 pM | koff [6]: 3.7e-06 s⁻¹ | kon [7]: 6e+06 M⁻¹ s⁻¹
B1: anti-hIL-8 mAb 928 (antibody, human IgG2, V domains shown)
VH: QVQLVESGGGVVQPGRSLRLSCAASGFTFSSYGMLWVRQAPGKGLEWVADISYDGSNKYYADSVKGRFTISRDNSKNTLYLQMNSLRAEDTAVFYCARDRIAVADYWGQGTLVTVSS
VL: EIVLTQSPGTLSLSPGERATLSCRASQSVSSSFLAWYQQKPGQAPRLLIYGASSRATGIPDRFSGSGSGTDFILTISRLEPEDFAVYYCQQYDSSFTFGPGTKVDIK
